From article PMC3937055 come the findings set out here.

The assay deals with caveolin, endogenous in mouse hippocampal primary neurons (mouse (endogenous in hippocampal primary neurons)) (UniProt P49817). Briefly: co-IP; competition: synthetic Tat peptides incubated with living hippocampal primary neurons for 45 min before lysis; anti-caveolin immunoprecipitate blotted for mGlu1 receptor, band intensity normalised to control (n=3).
UniProt P49817, sequence (P49817 whole entry): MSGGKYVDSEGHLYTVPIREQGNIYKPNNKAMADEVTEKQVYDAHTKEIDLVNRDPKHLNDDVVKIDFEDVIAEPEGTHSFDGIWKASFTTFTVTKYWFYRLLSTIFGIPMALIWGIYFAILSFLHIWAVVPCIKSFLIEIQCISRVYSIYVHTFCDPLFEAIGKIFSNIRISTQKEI

Consider “Tat-blocking peptide (Tat peptide fused with caveolin binding site of mGlu1α receptor)”, for which the mGlu1α receptor co-precipitated with caveolin in the presence of the peptide, % of control is 73.3 % of control.
